Test results from CN117700556A (SUZHOU ABCARTA MEDICAL TECH CO LTD; XIANGYA HOSPITAL …, dated 2024).

Legend:
[1] = biological target: T1, FRα抗原(SEQ ID NO:1)合成多肽; assay: ELISA screening of hybridoma clones on the SEQ ID NO:1 peptide
T1 construct: KLH-coupled for immunisation; also called FRα的多肽
T1 peptide: RIAWARTELLNV

[2] = biological target: T2, 叶酸受体α(Folate receptor alpha，FRα) (human, UniProt P15328 25-234); assay: immunohistochemistry on FFPE ovarian and breast cancer tissue, antibody at 0.5 μg/mL
T2 construct: whole, on cells; also called FRα蛋白
T2 sequence (P15328 25-234): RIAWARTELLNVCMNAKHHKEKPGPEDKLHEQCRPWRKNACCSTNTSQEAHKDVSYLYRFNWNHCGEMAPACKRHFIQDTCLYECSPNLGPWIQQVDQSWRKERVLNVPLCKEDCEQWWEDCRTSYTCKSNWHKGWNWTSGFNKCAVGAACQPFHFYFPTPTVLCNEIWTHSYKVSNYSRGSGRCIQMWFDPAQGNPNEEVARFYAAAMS

- binding result [1]: binds
- binding result [2]: binds
B1: 436I6G8抗FRα小鼠单克隆抗体 (antibody, V domains shown)
VH: EVQLQQSGVELVRSGASVKVSCTPSGFNIKDYFINWVKQRPEQGLEWIGWIDPENGDTEYAPKFQGKATMTADTSSNTAYLQLSSLTSEDTAVYYCYAERVVYWGQGTLITVSA
VL: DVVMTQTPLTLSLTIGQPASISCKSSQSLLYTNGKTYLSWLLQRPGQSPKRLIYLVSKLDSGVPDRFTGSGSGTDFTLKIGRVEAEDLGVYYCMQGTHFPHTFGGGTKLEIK
notes: Variable regions were cloned into InvivoGen pFUSE-CHIg-mG1 and pFUSE2-CLIg-mK (mouse IgG1 heavy, mouse kappa light constant regions); also called 436I6G8克隆的FRα小鼠单克隆抗体; 436I6G8抗FRα单克隆抗体
